Here are results for one protein from publication doi:10.1101/307710, “Assignment of the resting state of the secondary active transporter BetP by integrating spectroscopic measurements and molecular simulations” (bioRxiv, 2018).

The data set deals with the molecule itself. Briefly: PELDOR (DEER) spectroscopy; spin-labelled BetP in E. coli polar lipid proteoliposomes (lipid to protein 20:1), 200 mM Tris-HCl pH 7.5 in deuterated water, with 500 mM NaCl or with 300 mM NaCl and 5 mM betaine; Q-band, four-pulse sequence; distance distributions by Tikhonov regularisation.

B1: BetP G450R5/S516R5 in the background of the C252T cys-less variant (spin-labelled glycine betaine symporter BetP of Corynebacterium glutamicum) (natural protein, UniProt P54582 1-595, looked up)
chain: MTTSDPNPKPIVEDAQPEQITATEELAGLLENPTNLEGKLADAEEEIILEGEDTQASLNWSVIVPALVIVLATVVWGIGFKDSFTNFASSALSAVVDNLGWAFILFGTVFVFFIVVIAASKFGTIRLGRIDEAPEFRTVSWISMMFAAGMGIGLMFYGTTEPLTFYRNGVPGHDEHNVGVAMSTTMFHWTLHPWAIYAIVGLAIAYSTFRVGRKQLLSSAFVPLIGEKGAEGWLGKLIDILAIIATVFGTATSLGLGALQIGAGLSAANIIEDPSDWTIVGIVSVLTLAFIFSAISGVGKGIQYLSNANMVLAALLAIFVFVVGPTVSILNLLPGSIGNYLSNFFQMAGRTAMSADGTAGEWLGSWTIFYWAWWISWSPFVGMFLARISRGRSIREFILGVLLVPAGVSTVWFSIFGGTAIVFEQNGESIWGDGAAEEQLFGLLHALPGCQIMGIIAMILLGTFFITSADSASTVMGTMSQHGQLEANKWVTAAWGVATAAIGLTLLLSGGDNALCNLQNVTIVAATPFLFVVIGLMFALVKDLSNDVIYLEYREQQRFNARLARERRVHNEHRKRELAAKRRRERKASGAGKRR
modifications: R5 spin label ((1-oxyl-2,2,5,5-tetramethylpyrrolidin-3-yl)methyl methanethiosulfonate) on the cysteines introduced at positions 450 and 516
notes: Glycine betaine symporter BetP (betaine permease), Corynebacterium glutamicum; expressed from pASK-IBA5betP; cys-less C252T background with cysteines introduced at G450 and S516; also called periplasmic spin label pair; betaine permease
On to B1, for which the binding result was “binds”.
